Values of other authors in PMC6236854 (Molecular Imaging, 2018).
Ends that are not written are not given here.

Legend:
GHSR1a = conditions: read-out: half-maximal inhibitory concentration (IC50), binding affinity
[1] = not given; remark: listed apart in the source

IC50 (GHSR1a): 7.63 nM
Substance: ghrelin (GSSFLSPEHQRVQQRKESKKPPAKLQPR; ends and bridges not checked; UniProt Q9UBU3 24-51, looked up) [human ghrelin]
in vitro half-life in rat serum: 0.5 h
in vitro half-life in human serum [1]: 4 h
